Legend:
Test in all cases: EMSA
Conditions in all cases: EMSA: 30 ng probe in 20 ul, 10 mM Tris-HCl pH 7.4, 50 mM KCl, 5 mM MgCl2, 10% glycerol, room temperature 30 min, 6% PAGE
[1] = biological target: T1, PcaQ (Pseudomonas savastanoi pv. phaseolicola 1448A (P. syringae)) (UniProt Q48JW3)
T1 sequence: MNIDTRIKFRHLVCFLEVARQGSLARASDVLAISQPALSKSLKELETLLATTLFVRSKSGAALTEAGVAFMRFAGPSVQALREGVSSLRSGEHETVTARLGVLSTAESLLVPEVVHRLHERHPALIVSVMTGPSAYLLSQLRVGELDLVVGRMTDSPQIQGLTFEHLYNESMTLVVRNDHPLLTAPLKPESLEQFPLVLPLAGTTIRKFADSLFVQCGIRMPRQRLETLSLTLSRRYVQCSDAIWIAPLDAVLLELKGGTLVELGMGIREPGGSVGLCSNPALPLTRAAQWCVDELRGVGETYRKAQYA

[2] = biological target: T2, MetR (Pseudomonas savastanoi pv. phaseolicola 1448A (P. syringae)) (UniProt Q48EZ0)
T2 sequence: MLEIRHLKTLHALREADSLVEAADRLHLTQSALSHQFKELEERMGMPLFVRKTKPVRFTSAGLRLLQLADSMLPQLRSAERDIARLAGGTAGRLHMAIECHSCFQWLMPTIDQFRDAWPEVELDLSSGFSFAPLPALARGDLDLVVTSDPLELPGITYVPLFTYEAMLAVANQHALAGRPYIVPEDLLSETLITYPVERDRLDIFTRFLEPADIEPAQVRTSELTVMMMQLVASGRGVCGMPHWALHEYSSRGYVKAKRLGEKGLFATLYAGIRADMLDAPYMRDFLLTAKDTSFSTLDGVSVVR

[3] = biological target: T3, PSPPH_3297 (Pseudomonas savastanoi pv. phaseolicola 1448A (P. syringae)) (UniProt Q48GM7)
T3 sequence: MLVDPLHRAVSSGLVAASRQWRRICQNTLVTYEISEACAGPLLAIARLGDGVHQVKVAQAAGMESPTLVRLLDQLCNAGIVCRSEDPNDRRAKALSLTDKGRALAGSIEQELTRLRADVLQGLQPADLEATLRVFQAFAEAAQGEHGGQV

## ACAATTAGTTGAATAATTTCCTTGGATATGAGGAAGGCGGGCTACAGGTGAACGTATAAAAAATCATGGTTTTAGTTATGCATAACCATGAAAATAAAGGAATTTTTATTAAATGTTGGTATTAATCAAAGGCACGTTTAATCACGCCGTCTA (double strand) [katB promoter]
[1]
  binding: binds

## CATAGGGGTTGCCAAATGTGTCGAATGCCCCATAAGGTAGCGCTGTCTCATGGAAGGTGACAATGCTTTAT (double strand) [gntR negative control]
[2]
  binding: no binding

## GATGGGTGTTCGGTGATGACTATATGACATCACGGAACCGACTTTAACAGATGAAAAAAATTCAATTACAGGCGAGGTACAGGTTGATCGGCCGCAGACGGCTACTTTTTAAGCGCTATCGGTCGCGCAGCCCCATAAGATAAAGGGCCTGCTCATTTGTATGCA (double strand) [PSPPH_4247 promoter]
[2]
  binding: binds

## GGTGCGGCATATCCCGTAGGCTCTGTCATTAAAAATGGCACAATTCTACTAGGCCGTCATTGCCTCCAACATGAATGATTTTCATGCAAAAGCCGCAGCACCACCAAAACCGTTCCGGTTTGCTATCATCCCGTTCTTTAAAGTA (double strand) [PSPPH_2621 promoter]
[2]
  binding: binds

## GTACCTGCCAGAATGTTGAGGGTGATATTGATCCATAACCTTAGCCTCCTACGCCTCTTTAGCTGGACAGCAAAAATTACCGAATTAGCTAAACATTAGGAATAATTCTAGCATTAGCTGTTCAGCTAACAAAGGCCTAAAAG (double strand) [PSPPH_0985 promoter]
[1]
  binding: binds

## TCAAGAATTACAGTTGTGCCTTGCGTCATATGTGATCTGCTTATATGTATATGAAAAAAACTCATTATGAGTCAGTCTTGTATAACGTATTTAATACGGCCCTTTAATCAAACTACAAACACTTTTTTCAGGGGATTTCTGTGAA (double strand) [PSPPH_1024 promoter]
[2]
  binding: binds

## TCTACGCCCCCTCAAAAAACCCTTTCGGGCGTCCCTGCAACCCAAAAAGCCCCACTGGGCAGTTACGGGTTGACTGTAAGAACTTGTTACGAGATATTAGTTAGCATACTACTAATATCCTCCCTAACAATATTGTTCCTAACTAAATTGTTCACGACTCAG (double strand) [PSPPH_3297 promoter]
[3]
  binding: binds

From publication PMC7532196
